The values that follow come from a protein production outcome set (Wang et al. 2014).

This data set in a line: label from the status in PepcDB records.
For “MKVLREDEESEIVKQFLDDNNSVIVDFDPIDLYEAVHPPFSIRLSIDRISAMPLSILRRRAAAFVSDPQTLSKLLNNDIAGKFDFIYDNSNRSWQKYYPFSYYRSINAADLYENIKAYTVLDVREPFELIFGSIANSINIPISELREKWKILERDKKYAVICAHGNRSAAAVEFLSQLGLNIVDVEGGIQSWIEEGYPVVYGRESAED”, the protein production entry is listed as “failed”. The value for “MKVLVFICGEGLGHTSRGIALGRELLAAGHEVYLGAYGYSKEFIERKGYKTVEIPPEIKLVGESGSLNLKRSIISTLKGGNVFGIFKVLSLLKEKKPDIVVSDSYFTGVVASKIRGIPVYLIVNQSNMETFFKNGGIALRTMGGIIKQFYSCIFRRVDRIVIPDFPMPYTVCRLNLAFEEKVSKNLFFSGPLTLKKFDDVKAEVLQKPHVLSLIGGFGYREPIFRKVIEVAKLDKSINYTLLSGPSLNPDVFSNLPENVTIKRFINDQFPYLKASDLVIAPGGHSTIMEALTFGVPVLSFPDINHSEQESNATVVDLAGYGKRLDYSASPEEILRSIKELLKDEKIHQKVEIMKKLSKDLNATATFKELLESNSKRSQKV” was “failed”; that for “MKVNETGVEELNPYPDRPGERDCQFYLRTGLCGYGSSCRYNHPTHLPQDVAYYKEELPERIGQPDCEYFLKTGACKYGPTCKYHHPKDRNGAQPVMFNVIGLPMRLGEKPCPYYLRTGTCRFGVACKFHHPQPDNGHSTAYGMSSFPAADLRYASGLTMMSTYGTLPRPQVPQSYVPILVSPSQGFLPPQGWAPYMAASNSMYNVKNQPYYSGSSASMAMAVALNRGLSESSDQPECRFFMNTGTCKYGDDCKYSHPGVRISQPPPSLINPFVLPARPGQPACGNFRSYGFCKFGPNCKFDHPMLPYPGLTMATSLPTPFASPVTTHQRISPTPNRSDSKSLSNGKPDVKKESSETEKPDNGEVQDLSEDASSP” was “failed”. The value for “MKVNKFITIYKDIAQQIEGGRWKAEEILPSEHELTAQYGTSRETVRKALHMLAQNGYIQKIRGKGSVVLNREKMQFPVSGLVSFKELAQTLGKETKTTVHKFGLEPPSELIQKQLRANLDDDIWEVIRSRKIDGEHVILDKDYFFRKHVPHLTKEICENSIYEYIEGELGLSISYAQKEIVAEPCTDEDRELLDLRGYDHMVVVRNYVFLEDTSLFQYTESRHRLDKFRFVDFARRGK” was “not failed”. Take “MKVNPDFFPLTQMAQRFVDQLAQCRRLGLTVLEASEHHVLIELPYSTELIGYPDTGVIHGGVITTLMDTACGSAVVSAIFQKYQSLEISPTLDLRVDYMKPAQPHKSVYGFAECYKLSSNIAFTRAIAYQDSIDDPIAHAVGSFMRISPEMVGDAFRQALIGLEHHHHHH”: the protein production result is reported as “not failed”. For “MKVRNVIIGFMVASLTGCSMGHRDPVEIKQTLDKSINENGGLLLADLPASVQADLMPELNTPHVEVEEPVKRFRVRANGVGAKAFFTSLVKGTEYSVVIHPQVSGRITMNLSDVTMDDVLSSVEDLYGYDIVKAGKVLQVYPATIRTETIPVDYLQLTRKGRSLTTITTGSITNSDNNSSNNNNSSSKSNNNSSSSSSSATGGTEIETTSESDFWKELETAISVMIGNGADRSVVVSPQASVVTITASPDELRKVKQFLGTSHKRLQRQVILEAKLLEVTLSDGYQQGINWSNLTASLGGTDVVFGQTSGLVQGALPGMDTIGTLLGGQTNITVSDGNFQAVLSFMDTQGDLNVLSSPRVTAANNQKAVIKVGRDEYYVTEVSSVTGSGDNSNASPEVTLTPFFSGISLDVTPQIDDKGNVMLHVHPSVIDVENEVKEIDLGDVGGVLKLPLAKSSIRESDSVIRAKSGDVVVIGGLMKSQTVDQVSKVPLLGDVPALGHLFRNVSQLTQKTELVILLKPTVVGVDTWQEELERSRDLLQEWFPDELEHHHHHH”, the protein production result is “not failed”. To “MKVTSVGAAMLLLIVGNLIAVLSDSLIKSVANEVPMFQFVFFRQISAVMFLLPVCLLAKQTNFMEGFKWHAVRAHVWLLGAVFMVMAISSLPLATANAIFYAAPLIMLPLAAIFFGEQLSKQSVAAAVMGFAGVLVIIRPDQIDWAAISAFVVALTLAINNLLIRKLPKNQSVMQTLLMTNLAGIPVALLLVLIEDQPWQWGAFPVAAGSSLFIMIYAATCVLAYRSIDSNKIASAEYSGLIGAVVVGFIWFGEIPDIFMAIGTVMIVVPLIWLSKRERRKQKEHAQLQAQKEHEQQQAHVA” belongs “failed”.
